*1 amine or outer side, *2 acyl side, *3 side chain or, on linkers, in order; H or OH if unused. Bridges are numbered along the chain shown (N, C = ends). Roman numbers before positions name the chains, in order. [ ]: non-standard residue; d: D form. X1 = CC(C)CCC[C@@H](C)[C@H]1CC[C@H]2[C@@H]3CC=C4C[C@@H](OC(=O)NCCOCCOCCOCCOCCC(=O)NCCOCCOCCOCCOCCOCCOCCOCCOCCOCCOCCOCCOCCOCCOCCOCCOCCOCCOCCOCCOCCOCCOCCOCCOCCOCCOCCOCCOCCC(=O)NC(CCC(=O)[*:1])(CCC(=O)[*:2])CCC(=O)[*:3])CC[C@]4(C)[C@H]3CC[C@]12C; PEG4 = NCCOCCOCCOCCOCCC(=O)O
Key:
[1] = Rat pharmacokinetics, IV and SC
[2] = Non-human primate pharmacokinetics, IV and SC; type: in vivo, cynomolgus monkeys; conditions: male, cynomolgus monkey, plasma; for half-life: pH 7.4
[3] = Solubility in standard aqueous buffers; type: physicochemical; conditions: standard aqueous buffers (e.g., PBS, HEPES) at physiological pH
[4] = Rat pharmacokinetics, IV and SC; type: in vivo, Sprague Dawley rats
[5] = male, rat, in vivo, iv, 1 mg/kg
[6] = male, rat, in vivo, iv, 1 mg/kg, pH 7.4
[7] = male, rat, in vivo, sc, 1 mg/kg
[8] = Sprague-Dawley, rat, plasma, sc
[9] = rats, IV, compared to PIE12-trimer

With “I: Ac-[dH][dP][dC][dD][dY][dP][dE][dW][dQ][dW][dL][dC][dE][dL]G[PEG4][dK]-NH2 / II: Ac-[dH][dP][dC][dD][dY][dP][dE][dW][dQ][dW][dL][dC][dE][dL]G[PEG4][dK]-NH2 / III: Ac-[dH][dP][dC][dD][dY][dP][dE][dW][dQ][dW][dL][dC][dE][dL]G[PEG4][dK]-NH2 (disulfide I:3-I:12, II:3-II:12, III:3-III:12; linker I:17-II:17-III:17 via X1) [CPT31]” the AUC(0-inf) [1, 5] was 3.84 µM·h, the C0 [1, 5] was 2950 nM and the Vd [1, 5] was 0.134 L/kg. The clearance [1, 5] was 0.483 mL/min/kg, the half-life [1, 6] was 3.3 h and the AUC(0-inf) [1, 7] was 2.11 µM·h. For the same molecule, the Cmax [1, 7] was 261 nM, the Tmax [1, 7] was 2 h and the half-life [1, 7] was 5.4 h. For the same molecule, the “prolongation of IV half-life” value ([1]; rats, IV, compared to Chol-PIE12-trimer) was 2 fold, the “prolongation of SC half-life” value ([1]; rats, SC, compared to Chol-PIE12-trimer) was 1.4 fold and the AUC(0-inf) ([2]; iv, 1 mg/kg) was 11.6 µM·h. It also gave a C0 ([2]; iv, 1 mg/kg) of 3110 nM, a Vd ([2]; iv, 1 mg/kg) of 0.097 L/kg and a clearance ([2]; iv, 1 mg/kg) of 0.158 mL/min/kg. For the same molecule, the half-life ([2]; iv, 1 mg/kg) was 7.4 h, the AUC(0-inf) ([2]; sc, 3 mg/kg) was 29.4 µM·h and the Cmax ([2]; sc, 3 mg/kg) was 922 nM. For the same molecule, the Tmax ([2]; sc, 3 mg/kg) was 8 h, the bioavailability ([2]; sc, 3 mg/kg) was 80% and the half-life ([2]; sc, 3 mg/kg) was 18.8 h. For the same molecule, the solubility [3] was ~ 40 mg/ml.
`CC(=O)N[C@H](Cc1c[nH]cn1)C(=O)N1CCC[C@@H]1C(=O)N[C@@H]1CSSC[C@H](C(=O)N[C@H](CCC(=O)O)C(=O)N[C@H](CC(C)C)C(=O)NCC(=O)N[C@H](CCCCNC(=O)CCOCCOCCOCCOCCNC(=O)CCOCC(COCCC(=O)NCCOCCOCCOCCOCCC(=O)NCCCC[C@@H](NC(=O)CNC(=O)[C@@H](CC(C)C)NC(=O)[C@@H](CCC(=O)O)NC(=O)[C@H]2CSSC[C@@H](NC(=O)[C@H]3CCCN3C(=O)[C@@H](Cc3c[nH]cn3)NC(C)=O)C(=O)N[C@H](CC(=O)O)C(=O)N[C@H](Cc3ccc(O)cc3)C(=O)N3CCC[C@@H]3C(=O)N[C@H](CCC(=O)O)C(=O)N[C@H](Cc3c[nH]c4ccccc34)C(=O)N[C@H](CCC(N)=O)C(=O)N[C@H](Cc3c[nH]c4ccccc34)C(=O)N[C@H](CC(C)C)C(=O)N2)C(N)=O)(COCCC(=O)NCCOCCOCCOCCOCCC(=O)NCCCC[C@@H](NC(=O)CNC(=O)[C@@H](CC(C)C)NC(=O)[C@@H](CCC(=O)O)NC(=O)[C@H]2CSSC[C@@H](NC(=O)[C@H]3CCCN3C(=O)[C@@H](Cc3c[nH]cn3)NC(C)=O)C(=O)N[C@H](CC(=O)O)C(=O)N[C@H](Cc3ccc(O)cc3)C(=O)N3CCC[C@@H]3C(=O)N[C@H](CCC(=O)O)C(=O)N[C@H](Cc3c[nH]c4ccccc34)C(=O)N[C@H](CCC(N)=O)C(=O)N[C@H](Cc3c[nH]c4ccccc34)C(=O)N[C@H](CC(C)C)C(=O)N2)C(N)=O)NC(=O)CCOCCOCCOCCOCCOCCOCCOCCOCCOCCOCCOCCOCCOCCOCCOCCOCCOCCOCCOCCOCCOCCOCCOCCOCCNC(=O)CCN2C(=O)CC(S[C@H]3CC[C@@]4(C)C(=CC[C@H]5[C@@H]6CC[C@H]([C@H](C)CCCC(C)C)[C@@]6(C)CC[C@@H]54)C3)C2=O)C(N)=O)NC(=O)[C@@H](CC(C)C)NC(=O)[C@@H](Cc2c[nH]c3ccccc23)NC(=O)[C@@H](CCC(N)=O)NC(=O)[C@@H](Cc2c[nH]c3ccccc23)NC(=O)[C@@H](CCC(=O)O)NC(=O)[C@H]2CCCN2C(=O)[C@@H](Cc2ccc(O)cc2)NC(=O)[C@@H](CC(=O)O)NC1=O` (some centres unmarked) [Chol-PIE12-trimer] showed a half-life [1, 6] of 1.6 h, a bioavailability [1, 7] of 51% and a C0 ([1]; rat, in vivo, iv, 1 mg/kg) of 4530 nM. It also gave a Vd ([4]; Sprague-Dawley, rat, plasma, iv) of 0.134 L/kg, a Tmax [4, 8] of 4 h and a bioavailability [4, 8] of 73%. For the same molecule, the “increase of IV half-life” value [4, 9] was 3 fold, the reduction of clearance [4, 9] was 14-18 fold and the “extension of apparent half-life upon SC dosing” value ([4]; rats, SC, based on terminal-phase elimination, compared to PIE12-trimer) was ~ 3 fold. The solubility [3] was ~ 40 mg/ml.

Source: publication PMC5893306 (Molecular pharmaceutics, 2018)
